Test [1] concerns the target T1, keyhole limpet hemocyanin.
T1 construct: Probe of the polyreactivity assay; also called KLH
The test can be described thus: polyreactivity assay, reactivity normalized to the highest value for each probe. The method, then: (§1) Polyreactivity assays. The non-specific reactivity of H07-Lib3 was evaluated towards cardiolipin, keyhole limpet hemocyanin (KLH), lipopolysaccharides (LPS), single-stranded DNA (ssDNA), double-stranded DNA (dsDNA), insulin, and bovine serum albumin (BSA). Additional therapeutic antibodies (bococizumab, efalizumab, gantenerumab, ibalizumab, lenzilumab, and panitumumab) were included in experiments for comparison. The reactivity percentage of each antibody was normalized to the highest reactivity value for each probe. Threshold for acceptable polyreactivity was set to 30% for all probes.

A further test deals with T2, insulin.
T2 construct: Probe of the polyreactivity assay
The description is as above. The protocol:
as §1

Another test deals with T3, bovine serum albumin (bovine, UniProt P02769 25-607).
T3 construct: Probe of the polyreactivity assay; also called BSA
The test is described as above. The protocol: as §1

The target of test [2] is T4, Recombinant human Notch4 (human, UniProt Q99466 24-1447, limits assumed).
T4 construct: also called Notch4 analyte; Notch4 (antigen)
T4 sequence: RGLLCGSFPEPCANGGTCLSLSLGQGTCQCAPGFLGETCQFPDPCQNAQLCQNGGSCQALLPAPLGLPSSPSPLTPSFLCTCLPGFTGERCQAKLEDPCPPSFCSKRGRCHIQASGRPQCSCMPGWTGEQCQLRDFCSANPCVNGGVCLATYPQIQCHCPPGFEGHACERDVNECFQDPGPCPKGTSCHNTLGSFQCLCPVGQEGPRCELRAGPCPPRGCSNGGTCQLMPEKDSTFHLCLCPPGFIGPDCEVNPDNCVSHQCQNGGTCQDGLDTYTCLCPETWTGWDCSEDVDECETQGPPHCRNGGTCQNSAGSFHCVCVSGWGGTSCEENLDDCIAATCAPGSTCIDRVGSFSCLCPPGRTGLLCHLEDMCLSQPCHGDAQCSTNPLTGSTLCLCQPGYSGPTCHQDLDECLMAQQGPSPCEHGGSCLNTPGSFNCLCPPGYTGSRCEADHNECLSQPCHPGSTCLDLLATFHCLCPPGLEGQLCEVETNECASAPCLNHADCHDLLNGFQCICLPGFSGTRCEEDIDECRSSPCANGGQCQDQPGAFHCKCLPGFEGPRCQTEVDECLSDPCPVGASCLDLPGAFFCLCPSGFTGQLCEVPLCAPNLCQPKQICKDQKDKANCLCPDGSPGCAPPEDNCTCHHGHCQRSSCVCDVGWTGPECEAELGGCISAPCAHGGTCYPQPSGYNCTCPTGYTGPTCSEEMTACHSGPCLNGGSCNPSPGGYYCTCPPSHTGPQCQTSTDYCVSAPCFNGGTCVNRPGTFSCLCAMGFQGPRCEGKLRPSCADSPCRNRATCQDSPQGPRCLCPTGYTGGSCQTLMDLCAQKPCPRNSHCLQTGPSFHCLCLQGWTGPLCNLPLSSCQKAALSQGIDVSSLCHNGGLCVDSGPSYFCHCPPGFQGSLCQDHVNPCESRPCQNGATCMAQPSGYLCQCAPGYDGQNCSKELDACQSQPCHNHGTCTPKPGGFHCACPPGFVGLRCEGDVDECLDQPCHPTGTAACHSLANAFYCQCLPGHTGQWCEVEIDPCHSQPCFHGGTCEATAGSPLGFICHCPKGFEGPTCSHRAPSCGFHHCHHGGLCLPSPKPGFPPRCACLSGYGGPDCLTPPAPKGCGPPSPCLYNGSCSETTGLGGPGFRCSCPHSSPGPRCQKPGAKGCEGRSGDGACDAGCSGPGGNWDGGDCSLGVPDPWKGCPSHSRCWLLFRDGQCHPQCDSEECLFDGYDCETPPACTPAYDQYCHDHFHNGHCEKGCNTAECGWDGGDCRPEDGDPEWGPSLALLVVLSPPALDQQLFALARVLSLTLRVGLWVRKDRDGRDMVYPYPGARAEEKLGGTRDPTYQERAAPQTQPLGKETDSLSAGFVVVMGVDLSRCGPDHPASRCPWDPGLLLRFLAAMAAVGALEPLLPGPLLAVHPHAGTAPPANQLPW
Kind of test: SPR, antibody captured by anti-human IgG Fc on HC30M chip, Notch4 as analyte. The method, then: Binding kinetics measurements. Following expression and purification, clones were characterized using surface plasmon resonance (SPR) to determine binding kinetics and epitope binding activity. HC30M chips (polycarboxylate hydrogel surfaces having medium charge density and 30 nm coating thickness) were coated with anti-human Fc antibodies (unlabeled goat anti-human IgG Fc from Southern Biotech) to capture the candidate antibodies. Candidate antibodies were diluted to 10 μg/mL in HEPES-buffered saline Tris-EDTA (HBSTE)) and exposed to the surfaces for 15 minutes. After stabilizing baseline using HBSTE, Notch4 analytes were injected sequentially from a lowest concentration of 0.41 nM to a highest concentration of 300 nM. (Notch4 was diluted in HBSTE+0.5 mg/mL bovine serum albumin (BSA) to obtain a series of 3-fold dilutions.) To assess specificity, experiments were also run using Notch2 as an analyte in a single injection at 100 nM in HBSTE+0.5 mg/mL.

Test [3] concerns the target T4, Recombinant human Notch4. Kind of test: SPR, antibody captured by anti-human polyclonal Fc antibodies on CM5 chip, Notch4 as analyte at 300 nM. The method, then:
(§2) Binding kinetics measurements. H07-Lib3 binding kinetics were determined using surface plasmon resonance (SPR). CM5 chips were coated with anti-human polyclonal Fc antibodies (Southern Biotech) to capture candidate antibody. Candidate antibody was diluted in HEPES-buffered saline with 0.005% surfactant P20 (HBS-P) and exposed to the surfaces for 20 minutes. […] To assess specificity, experiment was also run using Notch3 as an analyte at 300 nM.
(In general: Surface plasmon resonance follows binding to a sensor surface in real time, without labels.)

In test [4] the target is T4, Recombinant human Notch4. Kind of test: SPR, antibody captured by anti-human polyclonal Fc antibodies on CM5 chip, Notch4 as analyte at 300 nM; Table 4 SPR, Notch4 as analyte. The method, then: as §2

This is an account of results in patent US20250243271A1 (ALCEA THERAPEUTICS, published 2025).

T3 sequence (P02769 25-607 limits assumed): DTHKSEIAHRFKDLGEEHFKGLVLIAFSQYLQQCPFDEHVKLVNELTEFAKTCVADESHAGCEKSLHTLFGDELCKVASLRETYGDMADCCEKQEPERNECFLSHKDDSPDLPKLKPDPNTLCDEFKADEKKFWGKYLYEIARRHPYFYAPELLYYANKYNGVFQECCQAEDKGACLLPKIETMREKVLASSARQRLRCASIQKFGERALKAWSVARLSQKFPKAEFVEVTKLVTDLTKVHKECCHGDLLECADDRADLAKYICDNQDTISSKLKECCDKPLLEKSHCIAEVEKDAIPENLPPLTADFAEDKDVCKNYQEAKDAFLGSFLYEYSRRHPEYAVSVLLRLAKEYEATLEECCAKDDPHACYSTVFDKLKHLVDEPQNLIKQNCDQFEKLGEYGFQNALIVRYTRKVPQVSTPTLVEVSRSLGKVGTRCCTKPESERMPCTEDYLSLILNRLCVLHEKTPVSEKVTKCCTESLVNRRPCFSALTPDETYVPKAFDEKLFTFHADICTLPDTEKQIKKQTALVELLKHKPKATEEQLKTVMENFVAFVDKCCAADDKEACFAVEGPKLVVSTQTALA

B1: H07-Lib3-Pl1 (antibody, V domains shown)
VH: EVQLVESGGGLVQPGGSLRLSCAASGLPFSSYAMSWVRQAPGKGLELVASIGTAGDAYYPDSVKGRFTISRDNAKNSLYLQMNSLRAEDTAVYYCARVGPFWQGFAFDIWGQGTMVTVSS
VL: DIVMTQSPLSLPVTPGEPASISCRSSQSLLHSSGHNYLHWYLQKPGQSPQLLIYMTYNRASGVPDRFSGSGSGTDFTLKISRVEAEDVGVYYCLQTTHWPHTFGGGTKVEIK
notes: Tested as an antibody captured by anti-human Fc antibodies
One may read the Kd as the equilibrium constant for the complex coming apart. In general, koff refers to the rate constant with which the complex falls apart. In general, kon refers to the rate constant with which the complex forms. Turning to B1, the normalized reactivity (in test [1]; in the test with insulin; with bovine serum albumin) was under 30% each time. Besides, the Kd came out at 1.4 nM with Recombinant human Notch4 [2] and 16.6 nM with Recombinant human Notch4 [4]. Further, the koff with Recombinant human Notch4 [3] was found to be 0.00164 s⁻¹. Besides, the on-rate (kon) with Recombinant human Notch4 [3] came out at 98300 M⁻¹ s⁻¹.
